Laboratory results taken from article PMC2778870, “The Crystal Structures of Yeast Get3 Suggest a Mechanism for Tail-Anchored Protein Membrane Insertion” (PLoS ONE, 2009).

Key:
D. hansenii Get3 = molecular target: T1, D. hansenii Get3 (Debaryomyces hansenii, UniProt Q6BSM0); experiment: X-ray crystallography, […] A, co-crystallization; conditions: 2 mM ADP, 1 mM MgCl2, 5 mM KCl, 0.2 M ammonium mono-basic phosphate, 20% glycerol; nucleotide-binding domain, closed dimer
T1 construct: recombinant, expressed and purified; homo-dimer; finger domain not visible in electron density
T1 sequence (Q6BSM0 1-348): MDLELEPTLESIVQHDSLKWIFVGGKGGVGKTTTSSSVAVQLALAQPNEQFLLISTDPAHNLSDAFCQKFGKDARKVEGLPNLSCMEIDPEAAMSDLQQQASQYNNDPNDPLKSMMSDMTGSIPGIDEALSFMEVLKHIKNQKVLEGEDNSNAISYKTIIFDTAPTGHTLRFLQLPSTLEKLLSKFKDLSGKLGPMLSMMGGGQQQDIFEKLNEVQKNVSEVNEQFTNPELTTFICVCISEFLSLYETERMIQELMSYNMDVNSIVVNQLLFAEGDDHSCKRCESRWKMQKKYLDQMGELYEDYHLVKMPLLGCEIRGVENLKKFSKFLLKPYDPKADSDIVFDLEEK

[1] = molecular target: the molecule itself; experiment: crystal structure; D. hansenii Get3 with ADP, 1.8 Å; hanging drop, 0.2 M ammonium mono-basic phosphate, 20% glycerol, 1 mM MgCl2, 5 mM KCl, 2 mM ADP
[2] = molecular target: the molecule itself; experiment: crystal structure; S. cerevisiae Get3, nucleotide-free, 2.3 Å; hanging drop, 100 mM MES pH 6.0, PEG 3350 15%, 0.2 M ammonium sulfate; two monomers in the asymmetric unit

Nc1ncnc2c1ncn2[C@@H]1O[C@H](COP(=O)(O)OP(=O)(O)O)[C@@H](O)[C@H]1O [ADP]
X-ray crystallography, 1.8 A, co-crystallization (D. hansenii Get3): The bound ADP molecule can be clearly identified in the Get3 nucleotide-binding domain (NBD)

B1: D. hansenii Get3 (enzyme)
chain: MDLELEPTLESIVQHDSLKWIFVGGKGGVGKTTTSSSVAVQLALAQPNEQFLLISTDPAHNLSDAFCQKFGKDARKVEGLPNLSCMEIDPEAAMSDLQQQASQYNNDPNDPLKSMMSDMTGSIPGIDEALSFMEVLKHIKNQKVLEGEDNSNAISYKTIIFDTAPTGHTLRFLQLPSTLEKLLSKFKDLSGKLGPMLSMMGGGQQQDIFEKLNEVQKNVSEVNEQFTNPELTTFICVCISEFLSLYETERMIQELMSYNMDVNSIVVNQLLFAEGDDHSCKRCESRWKMQKKYLDQMGELYEDYHLVKMPLLGCEIRGVENLKKFSKFLLKPYDPKADSDIVFDLEEK
notes: Get3 ATPase of the yeast D. hansenii (Debaryomyces hansenii); finger domain not seen in the electron density; Crystallised with ADP and Mg; also called DhGet3; source: expressed and purified
stoichiometry N [1]: 2

B2: S. cerevisiae full-length Get3 (enzyme, UniProt Q12154 1-354, looked up)
chain: MDLTVEPNLHSLITSTTHKWIFVGGKGGVGKTTSSCSIAIQMALSQPNKQFLLISTDPAHNLSDAFGEKFGKDARKVTGMNNLSCMEIDPSAALKDMNDMAVSRANNNGSDGQGDDLGSLLQGGALADLTGSIPGIDEALSFMEVMKHIKRQEQGEGETFDTVIFDTAPTGHTLRFLQLPNTLSKLLEKFGEITNKLGPMLNSFMGAGNVDISGKLNELKANVETIRQQFTDPDLTTFVCVCISEFLSLYETERLIQELISYDMDVNSIIVNQLLFAENDQEHNCKRCQARWKMQKKYLDQIDELYEDFHVVKMPLCAGEIRGLNNLTKFSQFLNKEYNPITDGKVIYELEDKE
notes: Get3 (Arr4) ATPase, S. cerevisiae, full length; in the crystal residues 191-210 (molecule A) and 93-116 (molecule B) are not seen; Se-Met protein was used for phasing only; One Zn ion is held between the two monomers; also called ScGet3; Arr4; source: E. coli, purified (Ni-chelating column, gel-filtration column)
stoichiometry N [2]: 2
